# Reference: patent US8324344B2, “Membrane transduction peptides and methods of delivering material to a target cell” (STC.UNM, priority 2008, dated 2012)
# Entries after “also recorded” stand apart in the source; their conditions may differ.
# Columns and labels:
# HT-1080 cells [1] = assay: Internalization of offered recombinant proteins in HT-1080 cells, immunoblotting of cytosolic and nuclear fractions; type: cell-based, human; conditions: 1 μM; for Internalization to cytosol and nucleus of HT-1080 cells: 37° C.
# Procedure: HT-1080 cells were grown in six-well plates under standard conditions. At confluence, the cells were treated with fresh medium containing either wild-type TFPI-2, TFPI-2^1-188, R24Q KD1, R24K KD1, or R24K KD1-CT as previously described (Kempaiah and Kisiel, Apoptosis, 2008;13:702-715). Briefly, duplicate wells were treated with purified proteins (1 μM final concentration) and incubated at either 37° C. or 4° C. for different time periods. Two wells were also treated with phosphate-buffered saline (PBS) at each temperature to serve as a control. At selected time points, the media was removed and the cells were rinsed once with PBS. The cells were then washed with 1 M NaCl/PBS for 30 minutes with gentle shaking to dissociate cell surface-bound proteins (Iino et al., Arterioscler. Thromb. Vasc. Biol., 1998;18:40-46). Finally, the cells were rinsed once with PBS, trypsinized and harvested for the preparation of cell lysates and cell fractions.
# To prepare total cell lysates, 1-3×10^6 cells were lysed by sonication in 500 μl of lysis buffer containing of 125 mM Tris-HCl (pH 6.8), 2% SDS, 10% glycerol, 50 mM sodium phosphate, 1 mM phenylmethanesulphonylfluoride (PMSF) and protease inhibitor cocktail. The lysate was kept on ice for about 10 minutes, centrifuged for 15 minutes at 10,000×g at 4° C., and the supernatant recovered. To prepare nuclear and cytosolic fractions, approximately 2×10^6 cells were harvested and washed twice with cold PBS by centrifugation at 600×g in a Beckman J-6M/E centrifuge for seven minutes at 4° C. Five volumes of ice cold cytosolic buffer (10 mM Hepes pH 7.4, 0.33 M sucrose, 1 mM MgCl2, 0.1% Triton X-100 and protease inhibitor cocktail) was added to the cells and incubated on ice for 15 minutes. The cytosolic fraction was collected by centrifugation at 900×g for five minutes at 4° C. The resulting undissolved pellet was washed twice with cytosolic buffer followed by centrifugation at 900×g for five minutes at 4° C. Finally, the resulting pellet was resuspended in five volumes of ice cold buffer containing 0.45 M NaCl in 10 mM Hepes (pH 7.4) and protease inhibitor cocktail. The suspension was incubated on ice for an additional 15 minutes to dissolve the nucleus, and subsequently centrifuged at 18,000×g for five minutes at 4° C. The resulting supernatant was collected as the nuclear extract. All samples were boiled for three minutes in the presence of 5% SDS and stored at −20° C. until use.
# The cell lysate, cytosol and nuclear fractions were subjected to SDS-PAGE using 4-20% polyacrylamide gradient gels. […] The membranes were then probed with specific antibodies dissolved in fresh blocking buffer. Immunoreactive proteins were identified using HRP-conjugated secondary antibodies and a chemiluminescent reagent system essentially as described (Kempaiah et al., Mol. Cancer, 2007;6:20). The integrity of the cytosolic and nuclear fractions was verified using anti-α-tubulin and anti-histone-H1 antibodies, respectively (Guo et al., Am. J Physiol. Cell Physiol., 2007;292:2095-2102).
# The relative intensity of the Western blot bands were quantified using QUANTISCAN software (Biosoft, Cambridge, U.K.). The intensities are reported in arbitrary units (A.U.) obtained by subtracting the background value from the corresponding band's mean value.
# human tumor cell lines = conditions: cited from earlier work
# HT-1080 cells [2] = assay: Localization of protein in stably-transfected overexpressing HT-1080 cells, immunoblotting and immunocytochemistry; type: cell-based, human; conditions: HT-1080 cells stably transfected with cDNA (FIG. 3, FIG. 4C, 4D)
# Procedure: HT-1080 and HEK 293 cell lines were stably transfected to overexpress either wild-type human TFPI-2 or a mutant TFPI-2 construct lacking the carboxy-terminal tail (TFPI-2^1-188), and were maintained as described (Chand et al., Blood, 2004;103:1069-1077, Du et al., Arch. Biochem. Biophys:, 2003;417:96-104). An anti-human TFPI-2 murine monoclonal antibody designated as SK-9 was prepared as described (Du et al., Arch. Biochem. Biophys., 2003;417:96-104) and coupled to Affi-Gel 10 according to the manufacturer's recommendation. Recombinant human TFPI-2 was purified from HEK 293 serum-free conditioned media by a two-step chromatography procedure involving heparin-agarose (Sprecher et al., Proc. Natl. Acad. Sci. USA., 1994;91:3353-3357) and SK-9-AffiGel 10 affinity chromatography. In the latter procedure, heparin-agarose purified TFPI-2 was dialyzed against 50 mM Tris-HCl (pH 7.5) and applied to the SK-9-AffiGel 10 column equilibrated at room temperature with this buffer. After a wash step with 50 mM Tris-HCl (pH 7.5)/0.5 M NaCl, TFPI-2 was eluted with 0.1 M glycine (pH 2.5)/0.5 M NaCl into one-tenth volume of 1 M Tris-HCl (pH 8.8) to immediately neutralize the pH 2.5 glycine. […]
# HT-1080 cells [3] = assay: Confocal microscopy of Alexa Fluor 488-conjugated TFPI-2 internalization in HT-1080 cells; type: cell-based, human; conditions: 50 μg/ml
# Procedure: The internalization of recombinant TFPI-2 in HT-1080 cells was assessed by confocal microscopy using a Zeiss LSM510-META microscope and Alexa Fluor 488-conjugated TFPI-2. Approximately 0.5 mg of recombinant TFPI-2 protein was labeled with Alexa Fluor 488 dye following the manufacturer's instructions. Alexa Fluor-conjugated protein (50 μg/ml) was added to two sets of HT-1080 cells that were grown to confluence in two-chamber culture slides and incubated either at 37° C. or 4° C. for different time periods. Cells were then washed twice with cold PBS and fixed with 4% paraformaldehyde solution for 15 minutes. The slides were further rinsed twice with cold PBS, treated with a drop of mounting medium containing 4′,6-diamidino-2-phenylindole (DAPI), and covered with a coverslip for confocal microscopy.
# [4] = five minutes, immunoblot (FIG. 4B)
molecule,measurement,setting,value
"R24K KD1: Mutated first Kunitz-type domain of TFPI-2 (R24K), recombinant (protein, left off: small tags and cut ends, Mutated first Kunitz-type domain of TFPI-2 (R24K), recombinant) DAAQEPTGNNAEICLLPLDYGPCKALLLRYYYDRYTQSCRQFLYGGCEGNANNFYTWEACDDACWRIEKVPKV",Internalization to cytosol and nucleus of HT-1080 cells,HT-1080 cells [1]; [4],is not internalized to either the cytosol or nucleus; also recorded: failed to enter the cells
same,Internalization by HT-1080 cells after 48-hour incubation,HT-1080 cells [1]; 48-hour incubation at 37° C.,failed to be internalized
same,Apoptosis induction potency relative to TFPI-2,human tumor cell lines,more potent inducer of apoptosis than TFPI-2
same,Induction of caspase-mediated apoptosis,"human tumor cell lines; several tumor cell lines, exogenously offered, Kempaiah and Kisiel 2008",induce caspase-mediated apoptosis
"R24K KD1-CT: Chimera of first Kunitz-type domain (amino acids 1-73, R24K) and carboxy-terminal tail (amino acids 187-213) of TFPI-2, SEQ ID NO:2 (protein, chimera of the first Kunitz-type domain (with the R24K mutation) and the carboxy-terminal tail) DAAQEPTGNNAEICLLPLDYGPCRALLLRYYYDRYTQSCRQFLYGGCEGNANNFYTWEACDDACWRIEKVPKVEFAKALKKKKKMPKLRFASRIRKIRKKQF",Internalization to cytosol and nucleus of HT-1080 cells,HT-1080 cells [1]; [4],is internalized to both the cytosol and nuclear fractions; also recorded: rapidly internalized and translocated to the nucleus
same,Internalization to cytosol and nucleus of HT-1080 cells,"HT-1080 cells [1]; five minutes, immunoblot (FIG. 4B), listed as R24KD 1-CT",internalized and translocated to the nucleus within minutes
"TFPI-2^1-188: TFPI-2 construct lacking the carboxy-terminal tail (amino acids 189-213 of SEQ ID NO:1) (protein, listed as Homo sapiens, tissue factor pathway inhibitor-2) DAAQEPTGNNAEICLLPLDYGPCRALLLRYYYDRYTQSCRQFLYGGCEGNANNFYTWEACDDACWRIEKVPKVCRLQVSVDDQCEGSTEKYFFNLSSMTCEKFFSGGCHRNRIENRFPDEATCMGFCAPKKIPSFCYSPKDEGLCSANVTRYYFNPRYRTCDAFTYTGCGGNDNNFVSREDCKRACAK",Internalization to cytosol and nucleus of HT-1080 cells,"HT-1080 cells [1]; up to 30 minutes, immunoblot (FIG. 4A)","is not internalized as readily to either the cytosol or nucleus; also recorded: slowly internalized, but failed to be transported to the nucleus"
same,Localization of overexpressed protein,HT-1080 cells [2],failed to demonstrate nuclear localization; also recorded: confined to the cytoplasm
"Alexa Fluor 488-conjugated TFPI-2: Recombinant TFPI-2 protein labeled with Alexa Fluor 488 dye (conjugate, UniProt P48307 23-235, looked up, Alexa Fluor 488 label, Recombinant TFPI-2 protein labeled with Alexa Fluor 488 dye) Tissue factor pathway …: DAAQEPTGNNAEICLLPLDYGPCRALLLRYYYDRYTQSCRQFLYGGCEGNANNFYTWEACDDACWRIEKVPKVCRLQVSVDDQCEGSTEKYFFNLSSMTCEKFFSGGCHRNRIENRFPDEATCMGFCAPKKIPSFCYSPKDEGLCSANVTRYYFNPRYRTCDAFTYTGCGGNDNNFVSREDCKRACAKALKKKKKMPKLRFASRIRKIRKKQF",Intracellular localization by confocal microscopy,"HT-1080 cells [3]; 4° C., five minutes and 10 minutes (FIG. 1D)",limited punctate distribution of TFPI-2 in the cytosol
same,Intracellular localization by confocal microscopy,"HT-1080 cells [3]; 4° C., two hour time point (FIG. 1D)",significant cytosolic and nuclear-associated TFPI-2
same,Intracellular localization by confocal microscopy,HT-1080 cells [3]; two-hour incubation at 37° C. (FIG. 1B),cytosolic and nuclear localization of TFPI-2; also recorded: uniform distribution of TFPI-2
